Measured values as given in patent US20110038881A1 (published 2011).

How the values were obtained:
HLA-DRB3*0101 = HLA-DRB3*0101 (human); experiment: competition binding
HLA-DRB1*0301 = HLA-DRB1*0301 (human); experiment: competition binding
HLA-DRB5*0101 = HLA-DRB5*0101 (human); experiment: competition binding
HLA-DRB1*0401 = HLA-DRB1*0401 (human); experiment: competition binding
HLA-DRB4*0101 = HLA-DRB4*0101 (human); experiment: competition binding
HLA-DRB1*1501 = HLA-DRB1*1501 (human); experiment: competition binding
HLA-DRB1*1301 = HLA-DRB1*1301 (human); experiment: competition binding
HLA-DRB1*1101 = HLA-DRB1*1101 (human); experiment: competition binding
HLA-DRB1*0701 = HLA-DRB1*0701 (human); experiment: competition binding
HLA-DRB1*0101 [1] = biological target: HLA-DRB1*0101 (human); experiment: competition binding
HLA-DRB1*0101 [2] = biological target: HLA-DRB1*0101 (human); experiment: competition

Binder	IC50 (HLA-DRB3*0101) [nM]	IC50 (HLA-DRB1*0301) [nM]	IC50 (HLA-DRB5*0101) [nM]	IC50 (HLA-DRB1*0401) [nM]	IC50 (HLA-DRB4*0101) [nM]	IC50 (HLA-DRB1*1501) [nM]	IC50 (HLA-DRB1*1301) [nM]	IC50 (HLA-DRB1*1101) [nM]	IC50 (HLA-DRB1*0701) [nM]	IC50 (HLA-DRB1*0101 [1]) [nM]	IC50 (HLA-DRB1*0101 [2]) [nM]
TQFVRFDSDAASQRM [peptide p7 (residues 31-45 of HLA-A2)]	456	164	1550	354	2180	374	> 100000	4000	786	122	
WRFLRGYHQYAYDGK [peptide p21 (residues 107-121 of HLA-A2)]											1
